Source: publication PMC4361618, “Nab3 Facilitates the Function of the TRAMP Complex in RNA Processing via Recruitment of Rrp6 Independent of Nrd1” (PLoS Genetics, 2015)

T1: TAP-tagged Nrd1 (S. cerevisiae, UniProt P53617 1-575)
T1 construct: also called Nrd1-TAP; source: S. cerevisiae NRD1-TAP strain (ACY2293; Thermo Scientific Open Biosystems), in lysate
T1 sequence (looked up): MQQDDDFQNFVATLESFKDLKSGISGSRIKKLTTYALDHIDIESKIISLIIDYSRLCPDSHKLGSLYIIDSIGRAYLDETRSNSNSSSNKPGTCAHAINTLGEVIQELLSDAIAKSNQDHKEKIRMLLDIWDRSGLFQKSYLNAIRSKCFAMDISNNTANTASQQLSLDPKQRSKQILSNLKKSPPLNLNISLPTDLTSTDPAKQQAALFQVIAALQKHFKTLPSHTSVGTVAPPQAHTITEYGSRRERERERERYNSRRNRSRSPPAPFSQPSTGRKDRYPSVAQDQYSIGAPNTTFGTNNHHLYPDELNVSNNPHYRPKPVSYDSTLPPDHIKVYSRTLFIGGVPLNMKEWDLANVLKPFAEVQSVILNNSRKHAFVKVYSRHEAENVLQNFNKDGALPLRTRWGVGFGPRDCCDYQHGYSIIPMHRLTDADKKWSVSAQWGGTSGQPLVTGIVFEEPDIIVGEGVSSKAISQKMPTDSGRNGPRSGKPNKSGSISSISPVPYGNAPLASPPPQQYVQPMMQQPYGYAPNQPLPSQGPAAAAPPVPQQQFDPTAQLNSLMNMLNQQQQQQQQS

T2: recombinant GST-tagged full-length Nab3 (S. cerevisiae, UniProt P38996 1-802)
T2 construct: Nab3, S. cerevisiae, full length, cloned into pGEX-TEV; also called GST-Nab3; source: E. coli DE3 cells, purified (glutathione Sepharose 4B, batch)
T2 sequence (looked up): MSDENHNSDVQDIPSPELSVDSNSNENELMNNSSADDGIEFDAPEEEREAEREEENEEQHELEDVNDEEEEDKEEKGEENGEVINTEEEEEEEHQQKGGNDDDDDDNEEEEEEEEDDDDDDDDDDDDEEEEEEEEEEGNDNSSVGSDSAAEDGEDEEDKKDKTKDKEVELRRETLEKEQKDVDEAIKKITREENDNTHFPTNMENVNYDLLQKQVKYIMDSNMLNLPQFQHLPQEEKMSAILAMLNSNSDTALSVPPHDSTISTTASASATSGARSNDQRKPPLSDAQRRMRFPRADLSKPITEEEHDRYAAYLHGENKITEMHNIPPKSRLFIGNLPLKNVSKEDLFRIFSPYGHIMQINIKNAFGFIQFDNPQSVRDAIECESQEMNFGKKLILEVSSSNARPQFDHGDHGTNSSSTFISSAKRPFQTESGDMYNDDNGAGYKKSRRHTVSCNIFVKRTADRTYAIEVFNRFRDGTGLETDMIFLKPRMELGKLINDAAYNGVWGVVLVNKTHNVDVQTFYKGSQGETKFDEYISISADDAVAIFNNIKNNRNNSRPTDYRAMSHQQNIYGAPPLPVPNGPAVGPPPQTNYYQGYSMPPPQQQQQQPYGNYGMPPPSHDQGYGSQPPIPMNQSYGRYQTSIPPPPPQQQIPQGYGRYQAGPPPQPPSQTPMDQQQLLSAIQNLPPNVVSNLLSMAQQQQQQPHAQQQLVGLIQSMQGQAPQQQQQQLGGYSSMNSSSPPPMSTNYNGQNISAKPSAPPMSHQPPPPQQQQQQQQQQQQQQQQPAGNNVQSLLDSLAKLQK

B1: Myc-tagged nab3-ΔNBD mutant (Δ204–248) (natural protein, S. cerevisiae, UniProt P38996 1-802, looked up)
chain: MSDENHNSDVQDIPSPELSVDSNSNENELMNNSSADDGIEFDAPEEEREAEREEENEEQHELEDVNDEEEEDKEEKGEENGEVINTEEEEEEEHQQKGGNDDDDDDNEEEEEEEEDDDDDDDDDDDDEEEEEEEEEEGNDNSSVGSDSAAEDGEDEEDKKDKTKDKEVELRRETLEKEQKDVDEAIKKITREENDNTHFPTNMSDTALSVPPHDSTISTTASASATSGARSNDQRKPPLSDAQRRMRFPRADLSKPITEEEHDRYAAYLHGENKITEMHNIPPKSRLFIGNLPLKNVSKEDLFRIFSPYGHIMQINIKNAFGFIQFDNPQSVRDAIECESQEMNFGKKLILEVSSSNARPQFDHGDHGTNSSSTFISSAKRPFQTESGDMYNDDNGAGYKKSRRHTVSCNIFVKRTADRTYAIEVFNRFRDGTGLETDMIFLKPRMELGKLINDAAYNGVWGVVLVNKTHNVDVQTFYKGSQGETKFDEYISISADDAVAIFNNIKNNRNNSRPTDYRAMSHQQNIYGAPPLPVPNGPAVGPPPQTNYYQGYSMPPPQQQQQQPYGNYGMPPPSHDQGYGSQPPIPMNQSYGRYQTSIPPPPPQQQIPQGYGRYQAGPPPQPPSQTPMDQQQLLSAIQNLPPNVVSNLLSMAQQQQQQPHAQQQLVGLIQSMQGQAPQQQQQQLGGYSSMNSSSPPPMSTNYNGQNISAKPSAPPMSHQPPPPQQQQQQQQQQQQQQQQPAGNNVQSLLDSLAKLQK
notes: also called nab3 NBD mutant; nab3-NBD; source: S. cerevisiae (NRD1-TAP, RRP6-TAP or DIS3-TAP cells), 2μ URA3 plasmid, in lysate; not shown: 2xMyc, C-terminal, kept
B2: GST-tagged Rrp47 (natural protein, S. cerevisiae, UniProt P38801 1-184, looked up)
chain: MEDIEKIKPYVRSFSKALDELKPEIEKLTSKSLDEQLLLLSDERAKLELINRYAYVLSSLMFANMKVLGVKDMSPILGELKRVKSYMDKAKQYDNRITKSNEKSQAEQEKAKNIISNVLDGNKNQFEPSISRSNFQGKHTKFENDELAESTTTKIIDSTDHIRKASSKKSKRLDKVGKKKGGKK
notes: Rrp47, S. cerevisiae exosome cofactor; RRP47 gene amplified (W303 gDNA template) and cloned into pGEX-TEV; also called GST-Rrp47; source: E. coli DE3 cells, purified (glutathione Sepharose 4B, batch)
B3: His-tagged full-length Rrp6 (enzyme, S. cerevisiae, UniProt Q12149 1-733, looked up)
chain: MTSENPDVLLSRVINVVRAASSLASQDVDFYKNLDRGFSKDLKSKADKLADMANEIILSIDEHHESFELKEEDISDLWNNFGNIMDNLLEMSDHSLDKLNCAINSKSRGSDLQYLGEFSGKNFSPTKRVEKPQLKFKSPIDNSESHPFIPLLKEKPNALKPLSESLRLVDDDENNPSHYPHPYEYEIDHQEYSPEILQIREEIPSKSWDDSVPIWVDTSTELESMLEDLKNTKEIAVDLEHHDYRSYYGIVCLMQISTRERDYLVDTLKLRENLHILNEVFTNPSIVKVFHGAFMDIIWLQRDLGLYVVGLFDTYHASKAIGLPRHSLAYLLENFANFKTSKKYQLADWRIRPLSKPMTAYARADTHFLLNIYDQLRNKLIESNKLAGVLYESRNVAKRRFEYSKYRPLTPSSEVYSPIEKESPWKILMYQYNIPPEREVLVRELYQWRDLIARRDDESPRFVMPNQLLAALVAYTPTDVIGVVSLTNGVTEHVRQNAKLLANLIRDALRNIKNTNEEATPIPSSETKADGILLETISVPQIRDVMERFSVLCNSNISKSRAKPVTNSSILLGKILPREEHDIAYSKDGLPNKVKTEDIRIRAQNFKSALANLEDIIFEIEKPLVVPVKLEEIKTVDPASAPNHSPEIDNLDDLVVLKKKNIQKKQPAKEKGVTEKDAVDYSKIPNILSNKPGQNNRQQKKRRFDPSSSDSNGPRAAKKRRPAAKGKNLSFKR
notes: Rrp6, S. cerevisiae nuclear exosome 3'-5' riboexonuclease, full length, cloned into pET30a-TEV; also called His-Rrp6; His6-RRP6; source: E. coli DE3 cells, purified (nickel-NTA agarose, batch)

Experiments:
TAP-tagged Nrd1 = target: T1, TAP-tagged Nrd1; test: co-IP; TAP-tagged Nrd1 precipitated on IgG Sepharose beads from lysates of NRD1-TAP yeast cells expressing Myc-tagged Nab3 proteins; IPP150 buffer (10 mM Tris-HCl pH 8, 150 mM NaCl, 0.1% NP-40), overnight at 4°C; anti-Myc immunoblot; % bound relative to input and to bound wild-type Nab3; settings: partners not purified
[1] = target: B3; test: pull-down; 8 μg purified GST fusion incubated with 14 μg purified His-Rrp6 and glutathione Sepharose 4B in IPP100 buffer (10 mM Tris-HCl pH 8, 100 mM NaCl, 0.1% NP-40) with 10 mg/ml BSA, 2 mM DTT, 2 hr at 4°C; anti-His immunoblot; settings: both partners purified
[2] = target: T2, recombinant GST-tagged full-length Nab3; test: as above; settings: both partners purified

Binder: B1
% bound relative to wild-type Nab3 (TAP-tagged Nrd1): 8%

Binder: B2
binding result [1]: binds

Binder: B3
binding result [2]: binds
